Legend:
Experiment in all cases: flow cytometry, biotinylated IL-17C (1 ug/ml) + SA-PE on transiently transfected 293fb cells
human IL-17R = target: T1, human IL-17R (human, UniProt Q96F46 33-866)
T1 construct: whole, on cells
T1 sequence (looked up): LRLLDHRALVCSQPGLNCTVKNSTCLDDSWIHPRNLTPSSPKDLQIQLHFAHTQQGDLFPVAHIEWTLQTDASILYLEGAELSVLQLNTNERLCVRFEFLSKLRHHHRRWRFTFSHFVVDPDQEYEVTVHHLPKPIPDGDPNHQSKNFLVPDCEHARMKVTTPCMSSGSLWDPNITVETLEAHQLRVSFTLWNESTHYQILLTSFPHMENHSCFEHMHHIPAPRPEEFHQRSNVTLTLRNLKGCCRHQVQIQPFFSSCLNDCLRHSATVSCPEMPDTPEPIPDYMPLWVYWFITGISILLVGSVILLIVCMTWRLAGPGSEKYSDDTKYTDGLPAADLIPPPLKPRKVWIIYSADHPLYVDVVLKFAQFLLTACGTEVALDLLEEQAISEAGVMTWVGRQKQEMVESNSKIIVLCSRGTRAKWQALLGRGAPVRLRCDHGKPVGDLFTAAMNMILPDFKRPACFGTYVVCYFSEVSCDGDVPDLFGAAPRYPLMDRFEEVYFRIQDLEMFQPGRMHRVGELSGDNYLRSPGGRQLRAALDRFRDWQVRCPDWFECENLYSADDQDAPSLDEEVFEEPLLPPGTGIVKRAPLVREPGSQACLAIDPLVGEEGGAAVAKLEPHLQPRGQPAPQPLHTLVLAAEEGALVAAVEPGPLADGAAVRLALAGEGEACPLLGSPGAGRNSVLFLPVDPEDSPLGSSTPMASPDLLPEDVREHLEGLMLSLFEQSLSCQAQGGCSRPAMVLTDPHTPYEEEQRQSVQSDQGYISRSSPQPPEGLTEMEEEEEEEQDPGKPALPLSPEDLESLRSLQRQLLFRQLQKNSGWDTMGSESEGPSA
Method: (§1) 293fb cells that had been transfected with expression vectors encoding human ZcytoR21x1 and ZcytoR21x2 were assessed for their ability to bind biotinylated human IL-17C. Control transfections included 1) no DNA transfection, 2) vector only (pzmp11), and 3) human IL17R. 10⁶ cells were removed from transfected suspension cultures at day 1, day 2, day 3, and day 5. Cells were pelleted and resuspended in 100 ul of staining media (SM), which is HBSS plus 1 mg/ml bovine serum albumin (BSA), 10 mM Hepes, and 0.1% sodium azide (w/v). Biotinylated human IL-17C was incubated with the cells on ice for 45 minutes at a concentration of 1 ug/ml. An APC conjugated anti-human CD8 antibody (BD Pharmingen; cat.#555369) was also added at 1:25 dilution. After 30 minutes, excess cytokine and antibody was washed away with SM and the cells were incubated with a 1:100 dilution of streptavidin conjugated to phycoerythrin (SA-PE; BD Pharmingen; cat# 554061) for 30 minutes on ice. Excess SA-PE was washed away and cells were analyzed by flow cytometry.
(§2) The amount of cytokine binding was detected from the change in the mean fluorescence intensity of the cytokine staining relative to negative controls —1) no DNA transfection and 2) vector only. […] Binding was also seen to human IL-17R.

human ZcytoR21x1 = target: T2, human ZcytoR21x1 (human, UniProt Q8NFR9 24-667)
T2 construct: also called hcytor21x1; IL-17RE
T2 sequence: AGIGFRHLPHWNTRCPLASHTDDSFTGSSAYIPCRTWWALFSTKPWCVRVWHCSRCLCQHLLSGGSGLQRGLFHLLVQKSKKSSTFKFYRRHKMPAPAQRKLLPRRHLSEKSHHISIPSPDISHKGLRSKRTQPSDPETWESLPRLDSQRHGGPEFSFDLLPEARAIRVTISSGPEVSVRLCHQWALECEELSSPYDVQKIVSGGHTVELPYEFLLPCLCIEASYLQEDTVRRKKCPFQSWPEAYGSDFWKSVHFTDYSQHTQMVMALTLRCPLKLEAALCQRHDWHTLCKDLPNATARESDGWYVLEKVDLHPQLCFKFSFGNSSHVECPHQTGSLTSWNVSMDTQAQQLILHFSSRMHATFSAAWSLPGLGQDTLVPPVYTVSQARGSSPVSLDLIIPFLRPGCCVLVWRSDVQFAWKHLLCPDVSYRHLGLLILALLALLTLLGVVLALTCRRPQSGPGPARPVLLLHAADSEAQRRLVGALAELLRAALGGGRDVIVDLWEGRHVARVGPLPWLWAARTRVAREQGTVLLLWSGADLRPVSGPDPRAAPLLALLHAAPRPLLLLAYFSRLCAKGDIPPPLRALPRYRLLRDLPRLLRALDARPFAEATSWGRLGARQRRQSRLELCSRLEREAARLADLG
Method: as §1, §2

human ZcytoR21x2 = target: T3, human ZcytoR21x2 (human, UniProt Q8NFR9 24-667)
T3 construct: also called hcytor21x2
T3 sequence: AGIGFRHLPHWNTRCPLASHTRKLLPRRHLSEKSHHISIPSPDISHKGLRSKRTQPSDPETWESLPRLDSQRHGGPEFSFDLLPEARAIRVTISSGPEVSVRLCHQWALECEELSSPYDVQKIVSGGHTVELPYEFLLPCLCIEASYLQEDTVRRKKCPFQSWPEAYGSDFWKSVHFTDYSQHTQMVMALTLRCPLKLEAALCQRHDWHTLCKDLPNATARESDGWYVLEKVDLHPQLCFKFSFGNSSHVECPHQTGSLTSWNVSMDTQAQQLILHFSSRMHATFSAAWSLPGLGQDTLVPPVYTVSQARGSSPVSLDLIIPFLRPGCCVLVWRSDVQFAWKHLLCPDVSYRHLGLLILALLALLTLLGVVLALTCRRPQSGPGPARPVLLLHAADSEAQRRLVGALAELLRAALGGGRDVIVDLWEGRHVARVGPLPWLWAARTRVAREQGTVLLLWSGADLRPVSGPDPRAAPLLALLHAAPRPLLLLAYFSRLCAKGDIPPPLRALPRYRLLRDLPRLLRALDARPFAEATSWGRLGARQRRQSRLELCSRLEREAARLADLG
Method: as §1, §2

Measured: binding result

B1: human IL-17C (ligand)
chain: HHDPSLRGHPHSHGTPHCYSAEELPLGQAPPHLLARGAKWGQALPVALVSSLEAASHRGRHERPSATTQCPVLRPEEVLEADTHQRSISPWRYRVDTDEDRYPQKLAFAECLCRGCIDARTGRETAALNSVRLLQSLLVLRRRPCSRDGSGLPTPGAFAFHTEFIHVPVGCTCVLPRSV
modifications: biotin label in the binding assays (sites not given); unlabelled in the signalling assays
notes: it is the last residue of the open reading frame as I know it; Recombinant forms made carried a C-terminal Glu-Glu tag (BHK) or His tag (293F); also called biotinylated human IL-17C; human IL-17C (A903G)
binds: all assays above

— US20060142192A1 (ZymoGenetics, published 2006)
